These results are taken from paper PMC2774669 (Microbial Cell Factories, 2009).

The data set concerns the molecule itself. Description: aggregation kinetics by turbidity.

B1: HET-s prion forming domain (PFD), HET-s(218-289) (domain or fragment, Podospora anserina, UniProt Q03689 218-289, looked up)
chain: KIDAIVGRNSAKDIRTEERARVQLGNVVTAAALHGGIRISDQTTNSVETVVGKGESRVLIGNEYGGKGFWDN
notes: also called HET-s PFD
B1: the binding result is listed as “binds”.
